Measured values as given in the PETadex activity labels.

B1: unnamed (protein)
chain: MHETNTRVRAGRACGCARAVRRVERGRVGRGRCLMRYRAFAWWWVCACLLLACGDTSGGNADETGPVTGQQPAAGASGQSASGTGGGTPAMPMSGGTSAGSAGRAGSAGMPPPAAGMGSMAGEGGTAGTDADAGASGVGGSAGGTSGVGGSAGSAGEGPDPEGPDPTTESASRAGPLNVESIPWTEFRNGPDFAGGTIWYPTDGEPPYPFVAIVPGFTAYESSIRSWGPFLASHNIVAITIDTNTTADQPPTRAAALLDALESVAAENSRSGSPLMDKLDESRQALMGWSMGGGGTLIAANRTPSLKAAISLCGWNPLGSYSMMTVPSLMFASLGDPLAGGQSQGFYRSIPDTTPKMLIEAGVADHFVANNPAYLNGLIGRYGLSWLKVFMVGDERYRQFLLEMPQGTTDYASNVE
B2: unnamed (protein)
chain: MKRTLSLRRLWQAMAACASLCIAAAASAQVGPDPTSAGLEASAGPFTVSTSSVSSYVRGFGGGTIYYPSAAGQYGVVAISPGFTATQSSVAWLGRRLASHGLVVITINTNSVFDMPASRATQLMAALNHVVSGASSTIRSRVDSTRLAVSGHSMGGGGALIAAQNNPTLRASLPLTPWNNATNFDTVRVPTLIFGADGDTVASASSHARPFYASLPATTLKAYAELNNANHSTPNSTNTPIGRYSVAWMKRFVDADARYSPFLCGEPHRTYATPAVFDRYNQNCPY
B3: unnamed (protein)
chain: MATFNQLMHWSLAGLAVSMLGACGGGGGGGTPDAPPVMTPAPLPAPIPAPLPPLPPPPPAPTACTTSCRGADPTPASVEADAGPYAVATLALTQANGAAAMVYYPTGSSESFGAVVTMPGWDGDQSNLQWLGPRLASNGFVVINVDTPARRGDFPDARARFGVQALDQVVTLSATPGNALSGKVDAARLGMVGHSMGGGAALVAARDHPGLFKAVVPLSPWYDQATRDFPSATPALVFVCTGDMTASVAGYALPVYDSLRSHKAYVEAAHVPVPGGDAHNCVRTGVANRPKLGKTVVSWLKLWLDGDPRYLPFVCGAQNPGTDAGFTNVWRSSCPF
B4: unnamed (protein)
chain: MPDADTGRRANRCGAGNPAEGNPVITTRKRLVRRLAALVLVAFALVACDIKGPDPTDAILTASSGPFGVGTLAVPTSAGFGGGTIYYPTGVDGPFAVISVAPGFTETASAVAEWGPRLASHGFVTIVFNTSNTFENPSTRSTEQRQALTYTINQSNTAGSPIAGLVDGNRRGVAGHSMGGGGTLISEQADSTIRAGVPLAPWNTSPDFPDITVPTLFLACQNDSIAPVANHASPMYESIPATTHKSFVSFAGGDHFCANSPTGGSSNAGKFAVAFFKKFLDGDTRYDPWVCGASKPAVNSAINEVRSTCPF
B5: unnamed (protein)
chain: MQRQTCTTPVGPFHPQETSPMTLTSTLQRFAGIRPFALALPLAAIGWVAQAQTNPPTSSLLNATAGPLTVSTSSVSSFAARGFGGGTIYYPDATGSYGVVAISPGYTARQSSIAWLGRRLATHGFVVITIDTNSTLDQPPSRATQLMAALGHVVNNANATVRSRVDASKQAVAGHSMGGGGSLIAAQNNPTLKAAYPLTPWSVSKNYGTVRVPTMIIGADGDTIAAVTTHSRAFYNSLSSTVFKAYGELNNASHFTPNSTNTPIGRYAVSWMKRFVDSDTRYSPFLCGAPHDSYATRTVFDRYERNCPY
B6: unnamed (protein)
chain: MHAVTSLGFVRASTAPGGRGWRRLAWALALGCGLGVGTTASYAQATGPNPSSAFLNASAGPLRVATESVSSFVTGFGGGTIYYPSTAGRYGVIAISPGFTATESSVAWLGRRLASHGFVAIVINTNSTLDQPASRATQLMAALRHATTGASSTVRARIDSTRQAVAGHSMGGGGTLIAAEDNPTLKAAIPLTPWNLSTSFNGVRVPTLIVGADGDTVASVAVHARPFYASLPASTFKAYAELNGASHFAPNTTNTPIGRYSVAWAKRFIDGDTRYSPFLCGAEHRAYATAAVFDRYNQNCPY
B7: unnamed (protein)
chain: MRKIASALEIAALVLASFAAGCGDDGSSNDNPMGMTTQTANTGTPDTGVSTMVPPASTDAGTSTNVGNTNTGTLDAGMVGSTTGIKPAVDSGAVDTGVALGDASSDSGSVAVGDGGGVISPVTPIMRGDAPTKASATAKGPYKVMSYTSGFPVTLYGGGTIWYPTDAEAPFGAVAICPGFTAAQSSIMNWGPFLASHGIVALTMDTATPLDVVDQRADELMDALASIKSENDRAASPIYKKIDTMRLGVMGWSMGGGGTWLAADMHPELRSAVTFAGHIVTAVNQDVSMVHVPTLMFAGSADNAILGGGMSQGVYDGIPESTPKMVWEIMGAGHDVANDPANTSGAVGRYGLSWEKVYLEGDMRYRQFLLEMPPTASYFKTNVK
B8: unnamed (protein)
chain: MRALLSPTRRRLMTRVSTLSTLPLRRVLCSLALSAVAAAASAQTAPPTSASLNATAGPLAVSSVAISGATGFGGGTIYYPQAAGSYGVIAISPGYGARGSSLAWLARRLATHGFVVAAINTTSTMDSPPSRGPQLMAALDHVVNKADANVRSRADGSRMAVMGHSAGGGGALVAARDNPTLKAAVALTPGSFGNFYSGVRVPTIIFGADGDTITPVTSQARPAYNSIPVTTPKAYGELNNATHLTPVSTNTPIGRYSVAWAKRFVDGDTRYS
B9: unnamed (protein)
chain: MRPTRCPSRATSPLRSRSRVLAVLIVMATTLASTLLTVSVTPAATAARQSQSRSVAGSSSEHASVRATIPDPTTASLEATNGPLAIATYTVPQPSGYGSGTITYPTARGSYPAVVLMPGYQGTQQNLQWVAPRLASWGFIVINVGTKTLGDDPASRGRQISAAGTQLLSLGSVAGNPLYGKMNGTLGAAGHSMGGGGVMAALREDSRFTAGMPLAPYYPNQNFSGVTDPTFFLTCKSDPVAHGNTYALPWYNSMSQAEKLYIEVPGDHLCPMTGYGNKAKQGKWIVSFFSRWLYGDTRFSPFLCGAAREADKNNPSLVTRWQDTCPF
B10: unnamed (protein)
chain: MKKSILEKIAVGTGALLFSVSAFSFTPSPTPDPDPDPDPTPCQGECDFTRGPNPTSSYLEASRGPYTVRNVSVSRSVSGFGGGTIHYPTNTTGTMGAIAIVPGFLAGESSISWWGPRLASHGFVVITIATNSTFDQPASRETQLGRALDYLVSQSNSSSSPISGKVDSARLGAMGWSMGGGGTLRLASGSRLVAAIPLAPWHSGSNNFNRIQTPTMIIACENDTTAAVRSHASPFYNSIPSSTDKAFLEINNGSHSCANGGGSNGGLLGKYGVSWMKRFMDQDTRYNQFLCGPNHAANSAISEYRETCNY
B11: unnamed (protein)
chain: MKTIARWQRRCAVGLGLLLLAAAAQSQTNPFQKGPDPTSTILNATAGPFAVATASVPSSVAGFGGGTVYYPTTAGSYAALALCPGFTATQSSIAWIGRRLATHGFVVITINTNSTFDQPPSRATQLMAALRYLTNSSSTTVRSRIDANRLGVGGHSMGGGGTLMATRDNPSLKVGIPMTPWSSTKSFSTVRVPTIIFGGENDTVAPVSSHSIPFYTSLPSSLDKAYAELNGASHFAPNSTNTPIGRYAVSWAKRFMDNDTRYDTFLCGSAHTAFATPAVFSDYRSTCPY
B12: unnamed (protein)
chain: MRSSHVRIKKDKRATRMRSAPVSAREPTSARRVTHAQRADPLDRQRRQPMRFQQHASRLIKASILGSLVVLSAAATAQTNPFARGPNPTASALEATSGPFTVRNFTVSRPSGYGAGTVYYPTNAGGTVGAIAIVPGYTARQSSINWWGPRLASHGFVVITIDTNSTLDQPGSRSSQQMAALRQVVSLNGTSSSPIYNKVDTSRLGVMGWSMGGGGSLISAANNPSLKAAAPQAPWNTSTNFSSLTVPTLIFACENDSIAATRSHASPMYNSMRNNPRQYLEITRGSHSCANSGNSDRGLLGKKGVAWMKRYMDNDTRYTTFACQNPNTSRVSDFRVANCS
B13: unnamed (protein)
chain: MPMYKLNHVFFAVALAACSALGCAEGSDGSTVSTGGDGVGGGAGETDLPAGAGGTAGVGGAAGSVDPSDIAGTGGSAGTAGETVAGSSGVPVAGTGGIPVAGSGGTGIVDSGGIGGGGAGGTLENNNFIRGPAPTAQSASQAGPYDVQSTTQGLRDPAEYGTQTLWYPTDAEPPFAAIAIVPGFVSPEGSIANWGPFLASHGIVVLTIGTNTGGDLPEVRSAALLAALDTIKAEHTRQGSPIEGKIDTGKLAVGGWSMGGGGTLLTITAHPELKAGLGICPWYMNAFAFAGNTVPVIMFAGTMDVLAGGMSQGFYDAIPASTPKMLFEIAGADHFYANDPLNVANPFTVQVGLYGLSWLKVFLEGDDRYRQFLLNPPQNASDFRTTVK
B14: unnamed (protein)
chain: MRKLLRRGPMRLLAVGLVIAVGVLATACDWRGPEPSDQLLTGTGPFGIGTISVPASAGFGGGTIYYPTGNPGPFAVVSFSPGFLEQSGAFPGWGNKLASHGFVAILFNTSNTGEFPDARSTEQRQALTYVINQGQNPSSPIFGLVDGNRTAVMGHSMGGGASLISAQADHTIDAVIPVAPWNGGTNFSGITSPTLVVACQSDSTAPVNSHASPFYNSIPSTTKKEYLSVAGGDHFCANDPSLVGGGNIGKYAVAFLKRWLDTDTRYDPWTCGASKATAGSVFNEVRSTCPW

Substrate: BHET
Details: 120 h

Plate clearing, not clears the plate:
B1
B2
B3
B4
B5
B6
B7
B8
B9
B10
B11
B12
B13
B14
